The text below walks through data of patent publication US20220315654A1.

The experiment concerns the target recombinant cynomolgus monkey PD-L1 soluble protein (biotinylated) (cynomolgus monkey) (UniProt G7PSE7). Nature of the experiment: sandwich ELISA: antibody captured on coated anti-human Fc, biotinylated recombinant cynomolgus PD-L1 titrated (x axis, nM), streptavidin-HRP/Amplex red fluorescence.

Sequence of Avelumab (antibody) (VH): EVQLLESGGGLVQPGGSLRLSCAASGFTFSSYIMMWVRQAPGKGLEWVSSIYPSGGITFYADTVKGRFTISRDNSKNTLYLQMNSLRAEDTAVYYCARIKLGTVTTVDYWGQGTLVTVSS
Sequence of Avelumab (antibody) (VL): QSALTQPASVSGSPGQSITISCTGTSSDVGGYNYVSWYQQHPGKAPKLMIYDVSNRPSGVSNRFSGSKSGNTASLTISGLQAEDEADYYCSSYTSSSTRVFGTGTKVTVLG
Sequence of recombinant cynomolgus monkey PD-L1 soluble protein (biotinylated) (cynomolgus monkey) (G7PSE7 entry or part of it limits assumed): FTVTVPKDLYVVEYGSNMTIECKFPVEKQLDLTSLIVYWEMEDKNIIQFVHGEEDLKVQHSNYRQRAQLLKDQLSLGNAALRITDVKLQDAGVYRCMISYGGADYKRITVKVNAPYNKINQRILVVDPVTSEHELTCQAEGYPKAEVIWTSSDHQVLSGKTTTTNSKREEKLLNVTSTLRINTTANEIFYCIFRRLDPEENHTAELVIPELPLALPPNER

Turning to Avelumab (antibody), the EC50 (read off the curve) came to 0.05 nM.
